Results reported in patent publication US20050142634A1, “Novel modulator of non-genomic activity of nuclear receptors (mnar) and uses thereof” (Wyeth, priority 2001, published 2005).

B1: mutant 10: MNAR mutant aa 595-962 (protein, listed as Homo sapiens)
chain: PPPLACALQAFSLGQREDSLEVSSFCSEALVTCAALTHPRVPPLQPMGPTCPTPAPVPPPEAPSPFRAPPFHPPGPMPSVGSMPSAGPMPSAGPMPSAGPVPSARPGPPTTANHLGLSVPGLVSVPPRLLPGPENHRAGSNEDPILAPSGTPPPTIPPDETFGGRVPRPAFVHYDKEEASDVEISLESDSDDSVVIVPEGLPPLPPPPPSGATPPPIAPTGPPTASPPVPAKEEPEELPAAPGPLPPPPPPPPPVPGPVTLPPPQLVPEGTPGGGGPPALEEDLTVININSSDEEEEEEEEGEEEEEEEEEEEEDFEEEEEDEEEYFEEEEEEEEEFEEEFEEEEGELEEEEEEEDEEEEEELEEVED
B2: mutant 11: MNAR mutant aa 595-887 (protein, listed as Homo sapiens)
chain: PPPLACALQAFSLGQREDSLEVSSFCSEALVTCAALTHPRVPPLQPMGPTCPTPAPVPPPEAPSPFRAPPFHPPGPMPSVGSMPSAGPMPSAGPMPSAGPVPSARPGPPTTANHLGLSVPGLVSVPPRLLPGPENHRAGSNEDPILAPSGTPPPTIPPDETFGGRVPRPAFVHYDKEEASDVEISLESDSDDSVVIVPEGLPPLPPPPPSGATPPPIAPTGPPTASPPVPAKEEPEELPAAPGPLPPPPPPPPPVPGPVTLPPPQLVPEGTPGGGGPPALEEDLTVININSSD
B3: mutant 9: MNAR mutant, C-terminal portion aa 595-1131 (protein, listed as Homo sapiens)
chain: PPPLACALQAFSLGQREDSLEVSSFCSEALVTCAALTHPRVPPLQPMGPTCPTPAPVPPPEAPSPFRAPPFHPPGPMPSVGSMPSAGPMPSAGPMPSAGPVPSARPGPPTTANHLGLSVPGLVSVPPRLLPGPENHRAGSNEDPILAPSGTPPPTIPPDETFGGRVPRPAFVHYDKEEASDVEISLESDSDDSVVIVPEGLPPLPPPPPSGATPPPIAPTGPPTASPPVPAKEEPEELPAAPGPLPPPPPPPPPVPGPVTLPPPQLVPEGTPGGGGPPALEEDLTVININSSDEEEEEEEEGEEEEEEEEEEEEDFEEEEEDEEEYFEEEEEEEEEFEEEFEEEEGELEEEEEEEDEEEEEELEEVEDLEFGTAGGEVEEGAPPPPTLPPALPPPESPPKVQPEPEPEPGLLLEVEEPGTEEERGADTAPTLAPEALPSQGEVEREGESPAAGPPPQELVEEEPSAPPTLLEEEPEDGSDKVQPPPETPAEEEMETETEAEALQEKEQDDTAAMLADFIDCPPDDEKPPPPSEPDS

Test system: ER
Experiment: MNAR structural-functional analysis, ER-stimulated transcription in HepG2 cells
Format: cell-based
Settings: MNAR deletion mutants transfected into HepG2 cells
Experimental: To delineate the regions of MNAR that are responsible for interaction with estrogen receptor and c-Src tyrosine kinase, we performed functional evaluation of MNAR deletion mutants (FIG. 12). A series of C-terminal truncations of MNAR was generated using specially designed oligonucleotides, by amplifying appropriate fragments and cloning them into appropriate expression vectors. These mutants were tested for their abilities to enhance ER-stimulated transcription when transfected into HepG2 cells.
At the C-terminus, MNAR contains a region rich in both proline and glutamic acid. To delineate the regions on MNAR responsible for interaction with estrogen receptors and c-src tyrosine kinase, a functional evaluation of MNAR deletion mutants was performed (FIG. 12). A series of C-terminal truncations of MNAR was generated using specially designed oligonucleotides, by amplifying appropriate fragments and cloning them into appropriate expression vectors. These mutants were tested for their abilities to enhance ER-stimulated transcription when transfected into HepG2 cells.

| Molecule | ability to enhance ER-stimulated transcription |
| --- | --- |
| B1 | inactive |
| B2 | inactive |
| B3 | inactive |
